Consider four molecules from article PMC5748972 (The Journal of Cell Biology, 2018).

In experiment [1] the target is intact integrin α4β1 on the surface of Jurkat cells (human (endogenous in Jurkat)) (UniProt P13612). Nature of the experiment: flow cytometry on cells. On the technique in general: Flow cytometry measures light scatter and fluorescence of single cells or particles in a stream.
In experiment [2] the target is intact α4β1 on Jurkat cells (Homo sapiens, UniProt P05556+P13612). Nature of the experiment: Fluorescent flow cytometry saturation binding of FITC-LDVP, Jurkat. To be noted: basal.
The target in experiment [3] is intact α4β1 on Thp1 cells (Homo sapiens, UniProt P05556+P13612). Nature of the experiment: Fluorescent flow cytometry saturation binding of FITC-LDVP, Thp1. Particulars: basal.
A further experiment concerns the target intact α4β1 on KA4 cells (Homo sapiens, UniProt P05556+P13612). The experiment can be described thus: Fluorescent flow cytometry saturation binding of FITC-LDVP, KA4. Particulars: basal.
In another experiment the target is integrin α4β1 (Homo sapiens, UniProt P05556+P13612). Nature of the experiment: Summary statements across α4β1 preparations and cell types. Particulars: Jurkat, Thp1, KA4 cell surface. The format is binding.
Experiment [4] deals with FITC-conjugated 4-((N′-2-methylphenyl)ureido)-phenylacetyl-L-leucyl-L-aspartyl-L-valyl-L-prolyl-L-al. Nature of the experiment: fluorescence polarisation. On the technique in general: Fluorescence polarisation rises when a labelled molecule tumbles more slowly, as on binding a larger partner.
Experiment [5] addresses intact integrin α4β1 on the surface of Jurkat cells (human (endogenous in Jurkat), UniProt P13612;P05556). The experiment can be described thus: flow cytometry on cells.

As to “human MAdCAM D1D2 (mucosal addressin cell adhesion molecule, domains 1 and 2) (domain or fragment)”, the Kd in experiment [1] came to 13900 nM.

On to “α4β1: integrin α4β1; intact receptor on the cell surface”, for which the “P^EO” value in experiment [2] is reported as 1.1 ± 0.2%; in experiment [3] it was 0.4 ± 0.1%; with intact α4β1 on KA4 cells, 1.4 ± 0.3%. For the same molecule, the “free energy of the BC state, range on three cell types” value in the experiment with integrin α4β1 was -3.2 to -2.5 kcal/mol.

Regarding “integrin α4β1 headpiece with high-mannose N-glycans (from UniProt P05556 21-501) (complex)”, the Kd in experiment [4] was 5.2 nM.

B1: alternatively spliced connecting segment III of human fibronectin (domain or fragment)
chain: DELPQLVTLPHPNLHGPEILDVPSTVQKTPFVTHPGYDTGNGIQLPGTSGQQPSVGQQMIFEEHGFRRTTPPTTATPIRHRPRPYPPNVGEEIQIGHIPREDVDYHLYPHG
Molecule B1 yielded a Kd in experiment [5] of 1000 ± 190 nM.

The term Kd denotes the constant that tells how readily two partners part at equilibrium. A lower Kd goes with a tighter complex.
